The term IC50 denotes the concentration that gives 50% inhibition. Low readings indicate greater potency, high ones weaker potency.

The results in this text go back to patent US20250263466A1 (VIR BIOTECHNOLOGY, published 2025).

In test [1] the target is SARS-CoV S protein (Urbani strain) expressed on ExpiCHO cells (SARS-CoV, UniProt P59594 14-1255). Put plainly: flow cytometry on ExpiCHO cells transfected with SARS-CoV S. Background: A flow cytometer gives signals particle by particle.
Test [2] deals with T1, MERS-CoV S protein (London1/2012) expressed on ExpiCHO cells (MERS-CoV, UniProt K9N5Q8 18-1353).
T1 sequence: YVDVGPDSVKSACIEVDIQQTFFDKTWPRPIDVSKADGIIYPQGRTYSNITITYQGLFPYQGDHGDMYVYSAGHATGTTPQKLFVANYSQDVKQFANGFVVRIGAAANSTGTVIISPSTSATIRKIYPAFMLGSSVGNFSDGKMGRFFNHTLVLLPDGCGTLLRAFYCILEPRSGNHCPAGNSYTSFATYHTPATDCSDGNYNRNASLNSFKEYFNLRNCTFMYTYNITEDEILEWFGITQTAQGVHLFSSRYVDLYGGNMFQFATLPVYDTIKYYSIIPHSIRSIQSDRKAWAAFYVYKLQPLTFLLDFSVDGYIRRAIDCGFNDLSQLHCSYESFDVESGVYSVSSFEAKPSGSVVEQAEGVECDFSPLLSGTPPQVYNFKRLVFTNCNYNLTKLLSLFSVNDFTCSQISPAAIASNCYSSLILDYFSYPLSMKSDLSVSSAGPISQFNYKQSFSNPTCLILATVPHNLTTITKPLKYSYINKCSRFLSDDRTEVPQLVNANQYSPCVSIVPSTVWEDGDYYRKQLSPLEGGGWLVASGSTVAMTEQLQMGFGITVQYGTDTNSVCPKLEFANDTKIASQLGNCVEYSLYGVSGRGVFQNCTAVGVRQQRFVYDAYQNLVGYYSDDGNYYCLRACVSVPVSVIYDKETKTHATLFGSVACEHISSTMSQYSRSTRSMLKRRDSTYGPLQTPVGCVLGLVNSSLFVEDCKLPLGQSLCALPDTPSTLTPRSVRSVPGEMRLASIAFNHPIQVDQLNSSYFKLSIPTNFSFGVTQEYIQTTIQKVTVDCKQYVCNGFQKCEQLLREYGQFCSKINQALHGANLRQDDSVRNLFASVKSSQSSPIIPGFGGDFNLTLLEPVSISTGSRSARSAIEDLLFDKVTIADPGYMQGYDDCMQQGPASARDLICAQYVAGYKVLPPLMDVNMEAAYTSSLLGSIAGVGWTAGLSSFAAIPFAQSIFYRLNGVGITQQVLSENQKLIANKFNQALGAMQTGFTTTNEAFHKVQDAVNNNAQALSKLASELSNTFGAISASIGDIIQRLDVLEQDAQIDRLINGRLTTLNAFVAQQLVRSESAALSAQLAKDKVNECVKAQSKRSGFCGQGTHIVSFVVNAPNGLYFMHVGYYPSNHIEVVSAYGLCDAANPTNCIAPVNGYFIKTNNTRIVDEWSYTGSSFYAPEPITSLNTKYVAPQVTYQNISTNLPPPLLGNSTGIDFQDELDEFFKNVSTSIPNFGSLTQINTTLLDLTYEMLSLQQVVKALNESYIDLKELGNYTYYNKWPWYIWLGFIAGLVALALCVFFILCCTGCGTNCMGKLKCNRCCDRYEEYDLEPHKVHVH
Put plainly: flow cytometry on ExpiCHO cells transfected with MERS-CoV S.

In test [3] the target is SARS-CoV Spike S1 Subunit Protein (strain WH20) (SARS-CoV, UniProt P59594 14-667). The test can be described thus: Octet (BLI): inhibition of SARS-CoV S1 binding to immobilized hACE2.

B1: nCoV-20 mAb (antibody, V domains shown)
VH: QVTLRESGPALVKPTQTLTLTCTFSGFSLTTTEMCVGWIRQPPGKALEWLALIDWDDDKYYSTSLRTRLTISKDTSKNQVVLTMTNMDPVDTATYYCARMFGRKRLAPTGFDPWGQGTLVTVSS
VL: DIVMTQSPLSLPVTPGEPASISCRSSQSLLHSNGKNYLDWYLQKPGQSPQLLICLGSYRASGVPDRFSGSGSGTDFTLKISRVEAEDVGVYYCMQALQTPWTFGQGTKVEIK
On to B1, for which the binding result in test [1] is “binds”; in test [2], “no binding (tested: 10 µg/ml)”.

B2: nCoV-18 mAb (antibody, V domains shown)
VH: QVQLVQSGAEVRQPGTSVKVSCKASGYTFMNNDITWVRQAPGQVLQWMGWIRPSNGNTNYAQKFQGRVTLTTDTSTNTAHMELRSLKSDDTAVYYCARQSHSTRGGWHFSPWGQGTLVTVSS
VL: DIQMTQSPSSLSASVGDRVTITCRPSQPISYFLNWYQQTPGKAPKLLIYAASSLQSGVPSRFSGSGSGTDFTLTISSLQPEDSATYYCQQSYSVPYTFGQGTKLEIK
B2: the binding result in test [1] is “binds”; in test [2] it was “no binding (tested: 10 µg/ml)”.

B3: nCoV-19 mAb (antibody, V domains shown)
VH: QVKLVESGGGVVQPGRSLRLSCAASGFTFSSNAMHWVRQTPGKGLEWVALISYDERNKYYAESVKGRFTISRDNSKNTLYLQMNSLRHEDTAVYYCARDLQMRVVVVSNFDYWGQGTLVTVSS
VL: DVVMTQSPLSLPVTLGQPASISCRSSQSLVYSDGNTYLNWFQQRPGQSPRRLIYEVSNWDSGVPDRFSGSGSGTDFTLKISRVEAEDVGVYYCMQATHWPPTFGQGTKLEIK
As for B3, the binding result in test [1] was “binds”; in test [2], “no binding (tested: 10 µg/ml)”.

B4: nCoV-1 mAb (antibody, V domains shown)
VH: QAQLVESGGALVQPGRSLRLSCAASGFTFRNYAMHWVRQAPATGLQWLAVITSDGRNKFYADSVKGRFTISREDSKNTLYLQMDSLRGEDTAVYYCVTQRDNSRDYFPHYFHDMDVWGQGTTVAVSS
VL: DVVLTQSPLSLPVTLGQPASISCRSSQSLVYSDGDTYLNWFQQRPGQSPRRLIYQVSNRDSGVPDRFSGSGSGTDFTLKISRVEAEDVGVYYCMQGSHWPPTFGQGTKVEIK
In turn, B4 gave an IC50 in test [3] of 1.13 mg/L. For the same molecule, the binding result in test [2] is “no binding (tested: 10 µg/ml)”.

B5: nCoV-10 mAb (antibody, V domains shown)
VH: QVQLVESGGGVVQPGRSLRLSCAASGFTFSNYGMHWVRQAPGKGLEWLAVISSDGRIKFYADSVKGRFTMSRDSSKNTLYLQMNSLRAEDTAVYYCAKDRFQFARSWYGDYFDYWGQGTQVTVSS
VL: AVAMTQSPLSLPVTLGQPASISCRSNQSLVYSDGNIYLNWFQQRPGQSPMRLIYRVSNRDSGVPDRFSGSGSGTDFTLKISRVEAEDVGIYYCMQGTHWPPTFGGGTKVEIK
In test [3], B5 came in with an IC50 of 2.69 mg/L. In test [2], the binding result is reported as “no binding (tested: 10 µg/ml)”.
